Source: patent publication US20140127759A1 (TORAY INDUSTRIES, published 2014)
Residue numbers refer to the chain shown, from its start. In names and notes the source's numbering stands.

B1: R170A/R220A/Y227F/E449R mutant β-glucosidase (enzyme)
chain: AKFPKNFMFGYSWSGFQFEMGLPGSEVESDWWVWVHDKENIASGLVSGDLPENGPAYWHLYKQDHDIAEKLGMDCIRGGIEWARIFPKPTFDVKVDVEKDEEGNIISVDVPESTIKELEKIANMEALEHYRKIYSDWKERGKTFILNLYHWPLPLWIHDPIAVRKLGPDAAPAGWLDEKTVVEFVKFAAFVAYHLDDLVDMWSTMNEPNVVYNQGYINLASGFPPGFLSFEAAEKAKFNLIQAHIGAYDAIKEYSEKSVGVIYAFAWHDPLAEEYKDEVEEIRKKDYEFVTILHSKGKLDWIGVNYYSRLVYGAKDGHLVPLPGYGFMSERGGFAKSGRPASDFGWEMYPEGLENLLKYLNNAYELPMIITENGMADAADRYRPHYLVSHLKAVYNAMKEGADVRGYLHWSLTDNYEWAQGFRMRFGLVYVDFETKKRYLRPSALVFRRIATQKEIPEELAHLADLKFVTRK
B2: R170A/R220A/Y227F/R448E mutant β-glucosidase (enzyme)
chain: B1 chain with R448E, R449E
notes: start methionine not included; Estimated to be monomeric
B3: parent β-glucosidase (Pyrococcus furiosus) (enzyme)
chain: B1 chain with A170R, A220R, F227Y, R449E
notes: Recombinant, expressed in E. coli; Homotetramer in crystal and in solution; also called wild-type; parent glucosidase
B4: R170A/R220A/Y227F mutant β-glucosidase (enzyme)
chain: B1 chain with R449E
notes: start methionine not included; Homodimer in crystal and by gel filtration; also called mutant (R170A/R220A/Y227F)
B5: R170A/R220A/Y227F/R448G mutant β-glucosidase (enzyme)
chain: B1 chain with R448G, R449E
notes: as for B2
B6: R170A mutant β-glucosidase (enzyme)
chain: B1 chain with A220R, F227Y, R449E
notes: start methionine not included in the entry
B7: R170A/R220A mutant β-glucosidase (enzyme)
chain: B1 chain with F227Y, R449E
notes: start methionine not included; also called A170A/R220A mutant [sic]
B8: R170A/R220A/Y227F/E459G mutant β-glucosidase (enzyme)
chain: B1 chain with R449E, E459G
notes: as for B2

How the values were obtained:
[1] = biological target: R170A/R220A/Y227F/E449R mutant β-glucosidase (Pyrococcus furiosus); test: gel filtration (Superdex 200), oligomeric state
[2] = biological target: the molecule itself; test: gel filtration (Superdex 200), oligomeric state
Experimental: (§1) The molecular weights of the parent glucosidase and the mutants were determined by gel filtration using HiLood 26/60 Suuperdex 200 as the column, a 50 mM tris-hydrochloride (pH 8) and 150 mM sodium chloride as the buffer. The enzymes prepared in Example 2, Reference Example 1, and Example 9 were each added to the column and eluted with the buffer at a flow rate of 2 mL/min. The enzyme was detected by measuring absorbance at 280 nm. Ovoalbumin (44 kDa), conalbumin (75 kDa), aldolase (158 kDa), and ferritin (440 kDa) were used as molecular weight markers, and a calibration curve was drawn based on the elution time of each enzyme component. The molecular weights measured by gel filtration (observed molecular weights: kDa) and molecular weights estimated from the amino acid primary structures (estimated molecular weights: kDa) are summarized in Table 8.

[3] = biological target: the molecule itself; test: gel filtration (Superdex 200), self-association
Experimental: as §1

[4] = biological target: the molecule itself; test: blue-native PAGE, self-association
Experimental: Whether the parent β-glucosidase and our β-glucosidases, R170A mutant, R170A/R220A mutant, and R170A/R220A/Y227F mutant, form stable tetramers or not was investigated by blue-native PAGE.
In the blue-native PAGE, 3-12% Native-PAGE Bis-Tris Gel (Invitrogen Corporation) was used. Electrophoresis samples were prepared by dissolving 1 μg of each of the parent β-glucosidase, R170A mutant, R170A/R220A mutant, and R170A/R220A/Y227F mutant in a sample buffer (50 mM imidazole (pH 7.0), 50 mM NaCl, 5 mM 6-aminohexanoic acid, 0.5% Coomassie G250, and 0.5% DDM). NativeMark protein standard (Invitrogen Corporation) was used as molecular weight markers. In the electrophoresis, 50 mM Tricine, 7.5 mM imidazole (pH 7.0), and Coomassie G250 were added to […], whereas 25 mM imidazole (pH 7.0) was added to the cathode side. The electrophoresis was performed at a constant voltage of 150 V for 100 minutes. After fixation of bands, G-250 was decolorized.

Row | Binder | Observed molecular weight (kDa) [2] [kDa] | binding result [3] | other results
1 | B1 | – | – | Observed molecular weight (kDa) [1]: 92 kDa
2 | B2 | 70 | no binding | –
3 | B3 | 237 | – | –
4 | B4 | 129 | – | –
5 | B5 | 63 | no binding | –
6 | B6 | – | – | binding result [4]: binds
7 | B7 | – | – | binding result [4]: binds
8 | B8 | 50 | no binding | –
